# Measurements published in patent publication US20240124607A1 (Merck Sharp & Dohme, published 2024).
# Where a chain is given by its changes, count along the chain named.
# T1: CEACAM5 N-A1-B1-His (human, UniProt P06731 35-322, limits assumed)
# T1 sequence: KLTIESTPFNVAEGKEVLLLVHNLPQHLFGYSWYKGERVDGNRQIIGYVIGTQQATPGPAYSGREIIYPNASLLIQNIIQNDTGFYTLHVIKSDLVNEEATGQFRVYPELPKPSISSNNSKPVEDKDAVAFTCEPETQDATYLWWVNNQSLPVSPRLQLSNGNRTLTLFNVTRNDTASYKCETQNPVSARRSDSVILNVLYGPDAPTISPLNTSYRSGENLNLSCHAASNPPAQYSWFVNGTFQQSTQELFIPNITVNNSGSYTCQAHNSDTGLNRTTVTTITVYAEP
# T2: CEACAM5 Nterm IgV-His (human, UniProt P06731 35-144)
# T2 construct: also called N-term domain of hCEACAM5
# T2 sequence: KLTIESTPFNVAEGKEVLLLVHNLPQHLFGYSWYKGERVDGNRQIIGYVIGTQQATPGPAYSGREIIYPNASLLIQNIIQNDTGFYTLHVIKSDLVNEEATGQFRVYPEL
# T3: human CEACAM5 on cells (human, UniProt P06731 35-685)
# T3 construct: tumour cell lines with endogenous CEACAM5, or B16F10 engineered to express hCEACAM5; also called CEACAM5 on MKN-45, HPAF-II, SK-CO-1, LoVo, BxPC-3, Kato-III, LS-174T, ZR-75-30; hCEACAM5-B16F10
# T3 sequence: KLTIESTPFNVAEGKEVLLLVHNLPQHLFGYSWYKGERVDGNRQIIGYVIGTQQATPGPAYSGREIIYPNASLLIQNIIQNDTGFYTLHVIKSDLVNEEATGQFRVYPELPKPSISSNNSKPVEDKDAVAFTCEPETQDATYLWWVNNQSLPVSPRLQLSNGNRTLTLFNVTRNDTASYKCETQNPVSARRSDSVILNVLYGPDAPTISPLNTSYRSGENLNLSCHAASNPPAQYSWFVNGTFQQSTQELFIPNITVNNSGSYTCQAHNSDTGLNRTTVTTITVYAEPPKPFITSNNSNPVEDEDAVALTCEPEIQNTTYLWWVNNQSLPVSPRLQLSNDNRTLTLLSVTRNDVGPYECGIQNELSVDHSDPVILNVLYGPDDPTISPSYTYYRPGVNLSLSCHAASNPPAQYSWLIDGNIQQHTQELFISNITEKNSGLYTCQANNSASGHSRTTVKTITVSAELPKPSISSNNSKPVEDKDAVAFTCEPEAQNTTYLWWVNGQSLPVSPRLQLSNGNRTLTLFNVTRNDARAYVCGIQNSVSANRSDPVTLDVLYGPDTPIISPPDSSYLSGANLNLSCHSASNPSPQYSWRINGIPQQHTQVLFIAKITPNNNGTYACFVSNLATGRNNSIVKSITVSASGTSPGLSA
# B1: AB0466 F3' CEACAM5 TriNKET (bispecific antibody, human IgG1, kappa)
# chain: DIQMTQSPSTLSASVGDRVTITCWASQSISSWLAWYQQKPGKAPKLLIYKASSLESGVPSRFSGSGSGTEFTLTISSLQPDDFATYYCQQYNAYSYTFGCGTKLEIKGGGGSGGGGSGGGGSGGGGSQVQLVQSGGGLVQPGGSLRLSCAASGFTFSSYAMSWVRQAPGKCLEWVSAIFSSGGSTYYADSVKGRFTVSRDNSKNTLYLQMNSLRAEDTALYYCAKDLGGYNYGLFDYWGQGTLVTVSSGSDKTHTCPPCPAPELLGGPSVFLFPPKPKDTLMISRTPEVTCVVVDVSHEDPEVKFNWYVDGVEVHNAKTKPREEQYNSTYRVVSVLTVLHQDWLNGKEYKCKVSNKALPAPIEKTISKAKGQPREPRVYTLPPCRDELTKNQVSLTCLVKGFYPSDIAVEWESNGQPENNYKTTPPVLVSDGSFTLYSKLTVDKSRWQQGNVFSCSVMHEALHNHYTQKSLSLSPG
# heavy: EVQLVESGGGLVKPGGSLRLSCAASGFTFSSYSMNWVRQAPGKGLEWVSSISSSSSYIYYADSVKGRFTISRDNAKNSLYLQMNSLRAEDTAVYYCARGAPIGAAAGWFDPWGQGTLVTVSSASTKGPSVFPLAPSSKSTSGGTAALGCLVKDYFPEPVTVSWNSGALTSGVHTFPAVLQSSGLYSLSSVVTVPSSSLGTQTYICNVNHKPSNTKVDKKVEPKSCDKTHTCPPCPAPELLGGPSVFLFPPKPKDTLMISRTPEVTCVVVDVSHEDPEVKFNWYVDGVEVHNAKTKPREEQYNSTYRVVSVLTVLHQDWLNGKEYKCKVSNKALPAPIEKTISKAKGQPREPQVCTLPPSRDELTENQVSLTCLVKGFYPSDIAVEWESNGQPENNYKTTPPVLDSDGSFFLYSWLTVDKSRWQQGNVFSCSVMHEALHNHYTQKSLSLSPG
# light: DIQMTQSPSSVSASVGDRVTITCRASQGISSWLAWYQQKPGKAPKLLIYAASSLQSGVPSRFSGSGSGTDFTLTISSLQPEDFATYYCQQGVSFPRTFGGGTKVEIKRTVAAPSVFIFPPSDEQLKSGTASVVCLLNNFYPREAKVQWKVDNALQSGNSQESVTEQDSKDSTYSLSSTLTLSKADYEKHKVYACEVTHQGLSSPVTKSFNRGEC
# B2: AB0411 F3' CEACAM5 TriNKET (bispecific antibody, human IgG1, kappa)
# chain: DIQLTQSPATLSVSPGERATLSCRASQSVSSSYLAWYQQKPGQAPRLLIYGASSRATGIPDRFSGSGSGTDFTLTISRLEPEDFAVYYCQQYNNWPLTFGCGTKVEIKGGGGSGGGGSGGGGSGGGGSQVQLVQSGGGLVQPGGSLRLSCAASGFTFTSYAMSWVRQAPGKCLEWVSAISGTGDSTFYADSVKGRFTFSRDNSKNTLYLQMNSLRAEDTAVYYCAKDLGWLQYGLFDYWGQGTLVTVSSGSDKTHTCPPCPAPELLGGPSVFLFPPKPKDTLMISRTPEVTCVVVDVSHEDPEVKFNWYVDGVEVHNAKTKPREEQYNSTYRVVSVLTVLHQDWLNGKEYKCKVSNKALPAPIEKTISKAKGQPREPRVYTLPPCRDELTKNQVSLTCLVKGFYPSDIAVEWESNGQPENNYKTTPPVLVSDGSFTLYSKLTVDKSRWQQGNVFSCSVMHEALHNHYTQKSLSLSPG
# heavy: B1 heavy
# light: B1 light
# B3: AB0621 F3' CEACAM5 TriNKET (bispecific antibody, human IgG1, kappa)
# chain: DIVMTQSPDSLAVSLGERATINCKSSHSLLYGNFQNNYLAWYQQKPGQPPKLLIYWASTRESGVPDRFSGSGSGTDFTLTISSLQAEDVAVYYCQQYYSYPYTFGCGTKLEIKGGGGSGGGGSGGGGSGGGGSQVQLVQSGAEVKKPGASVKVSCKASGYTFTAYTIHWVRQAPGQCLEWMGYINPSSGYTEYNQKFKDRTTLTADTSISTAYMELSRLRSDDTAVYYCTREGGLLWFDYWGQGTLVTVSSGSDKTHTCPPCPAPELLGGPSVFLFPPKPKDTLMISRTPEVTCVVVDVSHEDPEVKFNWYVDGVEVHNAKTKPREEQYNSTYRVVSVLTVLHQDWLNGKEYKCKVSNKALPAPIEKTISKAKGQPREPRVYTLPPCRDELTKNQVSLTCLVKGFYPSDIAVEWESNGQPENNYKTTPPVLVSDGSFTLYSKLTVDKSRWQQGNVFSCSVMHEALHNHYTQKSLSLSPG
# heavy: B1 heavy
# light: B1 light
# B4: AB0264 F3' CEACAM5 TriNKET (bispecific antibody, human IgG1, kappa)
# chain: B3 chain with S210P
# heavy: B1 heavy
# light: B1 light
# How the values were obtained:
# [1] = biological target: T1, CEACAM5 N-A1-B1-His; assay: SPR, Fab capt, 25C
# Experimental: If the protein domain was an Fc fusion, AB0411, AB0466, AB0264, or AB0621 were captured using an anti-human Fab antibody (Cytiva, #28958325) immobilized onto a CM5 chip. The various hCEACAM5 protein domains (N-term, A1-B1, A2, B2, A3, or B3) were titrated over the captured TriNKETs at 50 μL/min for 180 sec of association and 300 sec of dissociation. The assay was run at 25° C. in HBS-EP+ running buffer, pH 7.4. The surface of the CM5 chip was regenerated using […] glycine pH 2.1.
# [2] = biological target: T2, CEACAM5 Nterm IgV-His; assay: SPR, hFc capt, 37C
# Experimental: (§1) The various hCEACAM5 protein domains were titrated over the captured antibody at 50 μL/min for 180 sec of association and 300 sec of dissociation. The assay was run at 37° C. in HBS-EP+ running buffer, pH 7.4. The surface of the CM5 chip was regenerated using 3M MgCl₂.
# [3] = biological target: T1, CEACAM5 N-A1-B1-His; assay: SPR, hFc capt, 37C
# Experimental: as §1
# [4] = biological target: T3, human CEACAM5 on cells; assay: flow cytometry, MKN-45 cells
# Experimental: MKN-45 and HPAF-II human cancer cell lines were diluted into FACS buffer and 100,000 cells of each cell type were seeded per well in duplicate into 96-well plates for FACS staining. The cells were washed with PBS, incubated in a 1:2000 dilution of live/dead dye in PBS for 15 minutes, and then washed with FACS buffer. AB0264, AB0411, AB0466, and AB0621 were diluted into FACS buffer, and 50 μl of each diluted TriNKET was added to the cells. After incubation on ice for 30-120 minutes, the cells were washed with FACS buffer. Anti-human IgG-Fc secondary antibody was diluted into FACS buffer, and 50 μl was added per well for detection of the bound TriNKETs. The cells were incubated for 30-60 minutes on ice and then washed with FACS buffer. 50 μl of fixation buffer was added to each well and the cells were incubated for 10 minutes at room temperature. The cells were washed with FACS buffer and resuspended in FACS buffer for analysis with ThermoFisher Attune NxT, BD FACS Celesta SN #H66034400085, or BD FACS Celesta SN #H66034400160.
# [5] = biological target: T4, human CD16A (FcγRIIIA) V158 (human, UniProt P08637 17-208, limits assumed, biotinylated in the assay of Table 21); assay: SPR, biotin-CD16A on SA chip, 25C, pH 6.0
# T4 construct: also called CD16A (V158/V176)
# Experimental: (§2) Binding to human and cynomolgus CD16A was assessed using biotinylated CD16A captured on a streptavidin (SA) sensor chip (Cytiva, #BR100531). AB0411, AB0466, or AB0621 was titrated from 1500 nM at 25° C. at 30 μL/min for 150 sec association followed by 300 sec dissociation. The surface of the chip was regenerated with 2 mM sodium hydroxide for 5 sec at 30 μL/min. Running buffer was HBS-EP+. […] The V158 isoform bound ˜2- to 3-fold tighter than the F158 isoform as expected.
# [6] = biological target: T5, Cyno FcγRIIIA (cynomolgus monkey, UniProt Q8SPW2 17-208, limits assumed, biotinylated); assay: SPR, biotin-CD16A on SA chip, 25C, pH 6.0
# T5 construct: also called cynomolgus CD16A
# Experimental: as §2
# [7] = biological target: T4, human CD16A (FcγRIIIA) V158; assay: SPR, biotin-CD16A on SA chip, 25C, pH 7.4
# Experimental: as §2
# T4 sequence (P08637 17-208 F176V limits assumed): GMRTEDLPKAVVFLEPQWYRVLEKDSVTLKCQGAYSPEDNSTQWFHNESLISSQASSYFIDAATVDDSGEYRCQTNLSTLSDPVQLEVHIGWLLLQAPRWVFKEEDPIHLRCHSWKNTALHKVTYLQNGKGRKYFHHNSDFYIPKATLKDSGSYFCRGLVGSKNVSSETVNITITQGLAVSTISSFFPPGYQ
# T5 sequence (Q8SPW2 17-208 limits assumed): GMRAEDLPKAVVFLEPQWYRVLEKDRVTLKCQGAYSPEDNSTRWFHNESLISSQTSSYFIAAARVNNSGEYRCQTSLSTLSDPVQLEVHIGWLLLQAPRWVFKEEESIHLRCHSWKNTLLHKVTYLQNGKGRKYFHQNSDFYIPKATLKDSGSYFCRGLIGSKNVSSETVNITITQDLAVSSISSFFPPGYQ
binder,measurement,setting,value
B1,Kd,[1],2.1 nM
same,kon,[1],280000 M⁻¹ s⁻¹
same,Kd,[2],1.4 nM
same,kon,[2],1.1e+06 M⁻¹ s⁻¹
same,Kd,[3],5.5 nM
same,kon,[3],240000 M⁻¹ s⁻¹
same,EC50,[4],15.2 nM
same,Max FOB,[4],111 fold over background
same,Kd,[5],47 nM
same,koff,[5],0.038 s⁻¹
same,kon,[5],820000 M⁻¹ s⁻¹
same,Kd,[6],19 nM
same,koff,[6],0.047 s⁻¹
same,kon,[6],2.4e+06 M⁻¹ s⁻¹
same,Kd,[7],260 nM
same,koff,[7],0.078 s⁻¹
same,kon,[7],300000 M⁻¹ s⁻¹
B2,Kd,[1],0.95 nM
same,kon,[1],300000 M⁻¹ s⁻¹
same,Kd,[2],0.31 nM
same,kon,[2],1.4e+06 M⁻¹ s⁻¹
same,Kd,[3],1.2 nM
same,kon,[3],360000 M⁻¹ s⁻¹
same,EC50,[4],16.2 nM
same,Max FOB,[4],120 fold over background
same,Kd,[5],36 nM
same,koff,[5],0.029 s⁻¹
same,kon,[5],830000 M⁻¹ s⁻¹
same,Kd,[6],16 nM
same,Kd,[7],120 nM
same,koff,[7],0.029 s⁻¹
same,kon,[7],230000 M⁻¹ s⁻¹
B3,Kd,[1],1.8 nM
same,kon,[1],350000 M⁻¹ s⁻¹
same,binding result,[2],no binding
same,Kd,[3],11 nM
same,kon,[3],150000 M⁻¹ s⁻¹
same,EC50,[4],20.6 nM
same,Max FOB,[4],51.3 fold over background
same,Kd,[5],58 nM
same,koff,[5],0.04 s⁻¹
same,kon,[5],690000 M⁻¹ s⁻¹
same,Kd,[6],25 nM
same,Kd,[7],280 nM
same,koff,[7],0.072 s⁻¹
same,kon,[7],260000 M⁻¹ s⁻¹
B4,Kd,[1],1.1 nM
same,kon,[1],410000 M⁻¹ s⁻¹
same,EC50,[4],24.6 nM
same,Max FOB,[4],55 fold over background
